This passage reports Kd, koff and kon results from publication PMC9508356.

This assay concerns the target biotinylated SARS-CoV-2 spike protein subdomain 1 (S1) (SARS-CoV-2) (UniProt P0DTC2). Kind of assay: BLI.

pKd: −log10 of the molar value.

Take “recombinant human albumin ACE2 genetic fusion with wild type albumin sequence (WT-ACE2) (from UniProt Q9BYF1-1 18-740)”: the pKd is 7.48, the koff is 0.00028 s⁻¹ and the kon was 7860 M⁻¹ s⁻¹.

In the case of “recombinant human albumin ACE2 genetic fusion with FcRn null-binding albumin sequence (NB-ACE2) (from UniProt Q9BYF1-1 18-740)”, the pKd is 7.50, the koff is 0.000209 s⁻¹ and the kon worked out at 9640 M⁻¹ s⁻¹.
